Holding throughout (assay type): biochemical, human
Substrate in data set [1]: NC(=O)c1ccc[n+]([C@@H]2O[C@H](COP(=O)([O-])OP(=O)(O)OC[C@H]3O[C@@H](n4cnc5c(N)ncnc54)[C@H](O)[C@@H]3O)[C@@H](O)[C@H]2O)c1
The experiment in a line: SIRT1 deacetylation reaction, trypsin coupled assay with Fluor-de-lys. As to conditions: other: deacetylation, acetyl substrate; pH 8.0; 25.0 °C.

Substrate in data set [2]: NC(=O)c1ccc[n+]([C@@H]2O[C@H](COP(=O)([O-])OP(=O)(O)OC[C@H]3O[C@@H](n4cnc5c(N)ncnc54)[C@H](O)[C@@H]3O)[C@@H](O)[C@H]2O)c1
The data set can be described thus: SIRT5 wild type desuccinylation reaction, trypsin coupled fluorescence assay with Ac-SucLys-AMC. As to conditions: other: desuccinylation, succinyl substrate, 25°C, pH 8.0.

Substrate in data set [3]: NC(=O)c1ccc[n+]([C@@H]2O[C@H](COP(=O)([O-])OP(=O)(O)OC[C@H]3O[C@@H](n4cnc5c(N)ncnc54)[C@H](O)[C@@H]3O)[C@@H](O)[C@H]2O)c1
The data set can be described thus: SIRT5 Y102A/R105I deacetylation reaction, trypsin coupled assay with Fluor-de-lys. As to conditions: other: deacetylation, acetyl substrate; pH 8.0; 25.0 °C.

Substrate in data set [4]: NC(=O)c1ccc[n+]([C@@H]2O[C@H](COP(=O)([O-])OP(=O)(O)OC[C@H]3O[C@@H](n4cnc5c(N)ncnc54)[C@H](O)[C@@H]3O)[C@@H](O)[C@H]2O)c1
The experiment in a line: SIRT5 R105I deacetylation reaction, trypsin coupled assay with Fluor-de-lys. To be noted: other: deacetylation, acetyl substrate; pH 8.0; 25.0 °C.

Substrate in data set [5]: NC(=O)c1ccc[n+]([C@@H]2O[C@H](COP(=O)([O-])OP(=O)(O)OC[C@H]3O[C@@H](n4cnc5c(N)ncnc54)[C@H](O)[C@@H]3O)[C@@H](O)[C@H]2O)c1
The data set can be described thus: SIRT5 Y102A deacetylation reaction, trypsin coupled assay with Fluor-de-lys. To be noted: other: deacetylation, acetyl substrate; pH 8.0; 25.0 °C.

Substrate in data set [6]: NC(=O)c1ccc[n+]([C@@H]2O[C@H](COP(=O)([O-])OP(=O)(O)OC[C@H]3O[C@@H](n4cnc5c(N)ncnc54)[C@H](O)[C@@H]3O)[C@@H](O)[C@H]2O)c1
The experiment in a line: SIRT5 Y102A desuccinylation reaction, trypsin coupled assay with Ac-SucLys-AMC. As to conditions: other: desuccinylation, succinyl substrate; pH 8.0; 25.0 °C.

B1: SIRT1 (Homo sapiens) (protein)
chain: MIGTDPRTILKDLLPETIPPPELDDMTLWQIVINILSEPPKRKKRKDINTIEDAVKLLQECKKIIVLTGAGVSVSCGIPDFRSRDGIYARLAVDFPDLPDPQAMFDIEYFRKDPRPFFKFAKEIYPGQFQPSLCHKFIALSDKEGKLLRNYTQNIDTLEQVAGIQRIIQCHGSFATASCLICKYKVDCEAVRGDIFNQVVPRCPRCPADEPLAIMKPEIVFFGENLPEQFHRAMKYDKDEVDLLIVIGSSLKVRPVALIPSSIPHEVPQILINREPLPHLHFDVELLGDCDVIINELCHRLGGEYAKLCCNPVKLSEITEKPPRTQKELAYLSELPPTPLHVSEDSSSPERTSPPDSSVIVTLLDQAAKSNDDLDVSESKGCMEEKPQEVQTSRNVESIAEQMENPDLKNVGSSTGEKNERTSVAGTVRKCWPNRVAKEQISRRLDGNQYLFLPPNRYIFHGAEVYSDSEDDVLSSSSCGSNSDSGTCQSPSLEEPMEDESEIEEFYNGLEDEPDVPERAGGAGFGTDGDDQEAINEAISVKQEVTDMNYPSNKS
notes: SIRT1 (193–747) and SIRT5 (51–301) were cloned into the pLIC-His expression vector; His tag (pLIC-His vector); made in house; host or cells: E. coli BL21(DE3) Star
For orientation: Km means the substrate concentration at which the rate is half of its maximum. Usually kcat stands for the number of substrate molecules converted per active site and unit of time at saturation. As a reminder, the kcat/Km is the second-order rate constant that governs catalysis at low substrate concentration. As to B1, in data set [1], the Km came out at 388 ± 73 µM, the kcat is 0.000579 ± 9.1e-05 s⁻¹ and the kcat/Km turned out to be 1.63 M⁻¹ s⁻¹.

B2: SIRT5 wild type (Homo sapiens) (protein)
chain: KHIVIISGAGVSAESGVPTFRGAGGYWRKWQAQDLATPLAFAHNPSRVWEFYHYRREVMGSKEPNAGHRAIAECETRLGKQGRRVVVITQNIDELHRKAGTKNLLEIHGSLFKTRCTSCGVVAENYKSPICPALSGKGAPEPGTQDASIPVEKLPRCEEAGCGGLLRPHVVWFGENLDPAILEEVDRELAHCDLCLVVGTSSVVYPAAMFAPQVAARGVPVAEFNTETTPATNRFRFHFQGPCGTTLPEAL
notes: as for B1
As to B2, in data set [2], the Km came out at 69 ± 9 µM.

B3: SIRT5 Y102A/R105I (Homo sapiens; R105I/Y102A) (protein)
chain: KHIVIISGAGVSAESGVPTFRGAGGYWRKWQAQDLATPLAFAHNPSRVWEFAHYIREVMGSKEPNAGHRAIAECETRLGKQGRRVVVITQNIDELHRKAGTKNLLEIHGSLFKTRCTSCGVVAENYKSPICPALSGKGAPEPGTQDASIPVEKLPRCEEAGCGGLLRPHVVWFGENLDPAILEEVDRELAHCDLCLVVGTSSVVYPAAMFAPQVAARGVPVAEFNTETTPATNRFRFHFQGPCGTTLPEAL
notes: as for B1
Turning to B3, the Km in data set [3] was found to be 1194 ± 667 µM.

B4: SIRT5 R105I (Homo sapiens; R105I) (protein)
chain: KHIVIISGAGVSAESGVPTFRGAGGYWRKWQAQDLATPLAFAHNPSRVWEFYHYIREVMGSKEPNAGHRAIAECETRLGKQGRRVVVITQNIDELHRKAGTKNLLEIHGSLFKTRCTSCGVVAENYKSPICPALSGKGAPEPGTQDASIPVEKLPRCEEAGCGGLLRPHVVWFGENLDPAILEEVDRELAHCDLCLVVGTSSVVYPAAMFAPQVAARGVPVAEFNTETTPATNRFRFHFQGPCGTTLPEAL
notes: as for B1
In the case of B4, the Km in data set [4] is 609 ± 120 µM.

B5: SIRT5 Y102A (Homo sapiens; Y102A) (protein)
chain: KHIVIISGAGVSAESGVPTFRGAGGYWRKWQAQDLATPLAFAHNPSRVWEFAHYRREVMGSKEPNAGHRAIAECETRLGKQGRRVVVITQNIDELHRKAGTKNLLEIHGSLFKTRCTSCGVVAENYKSPICPALSGKGAPEPGTQDASIPVEKLPRCEEAGCGGLLRPHVVWFGENLDPAILEEVDRELAHCDLCLVVGTSSVVYPAAMFAPQVAARGVPVAEFNTETTPATNRFRFHFQGPCGTTLPEAL
notes: as for B1
In the case of B5, the Km in data set [5] turned out to be 1605 ± 321 µM; in data set [6] it was 321 ± 49 µM.

Values taken from PMC4811591, “Role of the Substrate Specificity-Defining Residues of Human SIRT5 in Modulating the Structural Stability and Inhibitory Features of the Enzyme” (PLoS ONE, 2016).
